Experiment: soluble on expression in E. coli; label from the status in PepcDB or PDB records
For “PMFEAAYDFPGSGSPSELPLKKGDVIYITREEPSGWSLGKLLDGSKEGWVPTAYMKPH”, the “soluble on expression in E. coli” value was “soluble”. For “MSLVSIDLPIEGRLARYDLTGRPVPFNSRDAKAFSRVAFAAAHVVADPLADNDPWLAPAIDWERTLAFRHRLWDLGLGVAESMDTAQRGMGLGWPEARELIRRSLAEARGRPDALIACGAGTDHLAPGPDVSIDDILAAYESQIEAIEAEGGRIILMASRALAAAAKGPEDYIRVYDRVLSQVKEPVIIHWLGEMFDPALEGYWGNADHMAAMKTCLDVLEAHAAKVDGIKISLLSKEKEIVMRRQLPKGVRMYTGDDFNYAELIAGDEEGHSDALLGIFDAIAPVASAALEALGSGRNGEFFELLEPTVPLSRHIFKAPTRFYKTGVVFLAYLNGLQDHFVMIGGQQSARSLVHLAELFRLADKAGALADPELATARMRRVLAMHGVEEGHHHHHH”, the “soluble on expression in E. coli” value was “soluble”. For “VQERIKACFTESIQTQIAAAEALPDAISRAAMTLVQSLLNGNKILCCGNGTSAANAQHFAASMINRFETERPSLPAIALNTDNVVLTAIANDRLHDEVYAKQVRALGHAGDVLLAISTRGNSRDIVKAVEAAVTRDMTIVALTGYDGGELAGLLGPQDVEIRIPSHRSARIQEMHMLTVNCLCDLIDNTLFPHQDD”, the “soluble on expression in E. coli” value was “soluble”. With “MNILTLMETFSAVVEAGSFTGAAEKLGLSKSFVSKQVSTLEVELGCRLLYRTTRTLSLSDEGSQFYNHCKIIMAEAENARAEVMDRQGAPRGKIRMTIPQSLIISGFGQLLIDFQLQYPEIKLEVIASGRIEDLVKEGIDIALRVGQLEDSSLISRRLMDCTFQVVASSDYIKKWGEPFQPADLMQHNCLIYGDSKINKGWPFRSPSGESITVKAKGNFISNDGGLVVEGMLNGLGIGFGPSFLFNEHVEKGRLKLLLSDYYQPPTAISALYPLNRNLSRRIRLLIDYLSERLSV” the “soluble on expression in E. coli” value was “not soluble”. In the case of “GSQNNECKMVDLRGAKVASFTVEGCELICLPQAFDLFLKHLVGGLHTVYTKLKRLEITPVVCNVEQVRILRGLGAIQPGVNRCKLISRKDFETLYNDCTNA”, the “soluble on expression in E. coli” value is reported as “soluble”. With “MQQTTQIQPSFTLKTREGGVASADERADEVVIGVGPAFDKHQHHTLIDMPHGAILKELIAGVEEEGLHARVVRILRTSDVSFMAWDAANLSGSGIGIGIQSKGTTVIHQRDLLPLSNLELFSQAPLLTLETYRQIGKNAARYARKESPSPVPVVNDQMVRPKFMAKAALFHIKETKHVVQDAEPVTLHIDLVRE” the “soluble on expression in E. coli” value was “soluble”. With “MSLSEDLRFFEFFAGGGMARAGLGNQWQCLFANDMDRIKASTYIQNWGKDHFDSRDIREVNSEDLERNGDLAWASFPCQDLSVAGNGLGIGSSSAKDFTRSGALWPFLDLIDTLRQEERQPPLLVLENVVGLLTLEGGRDFAAICERLGEIGYRYGAVIIDAKHFLPQSRPRVFIIAVQRNIDIPCKLSRGMATANWHTPTLLRAYKSLTPILHADWVWWELGDAPILQENALESFIQREGVLWNTPEETKRIISMMAPAHLARLENAKCAGGVAVGSLYLRMRREGGINKQRAEITFSPLLGCLRTPRGGASRPRIIVVESGHVRTRLLTICEAARLMGLANTYILPEIYHHAFKVIGDGVAVPAVRFLAERLLEPLAIAARGQIAIPHEKAFMAEGHHHHHH” the “soluble on expression in E. coli” value was “soluble”. With “MNNKLKTQAVEQLFQAILSLKDLDEAYDFFEDVCTINEILSLSQRFEVAKMLREHRTYLDIAEKTGASTATISRVNRSLNYGNDGYDRVFERLGMLEKESEDNK” the “soluble on expression in E. coli” value was “soluble”. In the case of “MSKVLELAKELGAEVIQTHTSWVLLLKDVVYKIKKPVNFGFLDYSTLEKRKEMCYKEVELNRRLCPWVYIGVVPISEVKGKWVIENDENVVEYAVKMRRIPDEAILSNRLDKTTEEDLKKVAKVVADFHVRAKRVDEFGKMEVMKYNTDENFAQTEKYIGITISKEDYDFIKRKTNEFYEKHADIFEKRIKEGRIRDGHGDIRTEHVAFLEEGVCIFDCIEFNDRFRYGDVLNDMCFLSMELEYFGREYLARAYEEEYRRISKDPDFDLMLPFFKCYRAYVRGKVNSFLLDDPNLTQEEKEKAKERATKFFKLARTYAEMIK”, the “soluble on expression in E. coli” value is reported as “not soluble”. For “MAKTGMYVGLDIGTTSVKVVVAEYIEGQMNIIGVGNAKSDGLNRGIVVDIDQTVQAIQRAVRQAEEKAGIQIKSVNVGLPANLLEVESCQGMIAVSSESKEITDEDVRNVASAALVRSTPPERQIVAILPQDFTVDGFEGIKDPRGMLGVRMEMFGVVYTGPKTIIHNIRKCVEKAGLGINELVITPLALTETILTDGEKDFGTIVIDMGGGQTTTSVIHDKQLKFTHVNQEGGEFITKDISIVLNTSFNNAEALKINYGDAYPERTSANEEFPVDVIGKSEPVRVDERYLSEIIEARVEQILRKSKEVLDEIDAFELPGGVVLTGGAASMPGIVDLAQEIFEANVKLYVPNHMGLRNPVFANVISIVEYSAQLNDIYHIAKYAIPGEKSKPAQSVAVQQEVRYDTYAEQPQEEYEEFNERESGEKVTGKIKDFFSNIFD”, the “soluble on expression in E. coli” value was “not soluble”. For “MGSDKIHHHHHHMAGVTAPLLGLQKKSLREQALSALRTAITSGELEPGRHLVETELSDMLQISRGTLREALRQLEQEGLLSAGPRGRLSVRHLDAKEIRDIYSVRAALESLAARTLCELPDRQHVIGSLRAAIGAMDAAAKGSLEDRIESDLEFHRTLCRLTGNETLLHSWESLEGSIRMSIMFAGLEKGVSNMSVDRHHDIVAAIETGDGSLARKTIREHMDTAADNLVA”, the “soluble on expression in E. coli” value was “not soluble”. With “MAQKILVEQVVKRKAIVVQPKDTVDRVAKILSRNKAGSAVVMEGDEILGVVTERDILDKVVAKGKNPKEVKVEEIMTKNPVKIEYDYDIEDVIELMTEKGVRRVLVTKFGKPIGFVTAADILAALASHNHEEEEEEREEESEVYGICEVCGQYGALYKVYHEGRELWVCETCKDLIEGR” the “soluble on expression in E. coli” value was “soluble”. For “GPGSMGNGCCGCCDAKPDYKLGRPLVSGKTTPCFNDGRLFKIVKGDIWYFYNDTQDYQMKVTADFGNGSNIVAMSDTELVRKNDSGACTATVSVFPLETKAMVQTKEVNGFNVKYSGIAFTDADRQKLRQKAAAQVSADLAEMRKLRERNPKVNNQNRLLKVARGKGKMYVDTSFPPTSQSLIRSGIDSDPDACLKRPETIAWRRPEDFLPKKWHPKIRLFGNISPKDISQGQLGDCYYLCALAALAEHDAAIKGIFKNHHGCCIRSQERKHGAWRVNLNISGWWRTIIIDSYLPTVQLLPVFARNRNHPNELWVSFAEKAYAKVFGSYQAIVAGYPWQALEDLTGFPAYNFGNMWRTAQTDTETRKKLFDSLHRWNKKYLICIATPSNGALKMAGKQLSANQWEALFEKAGLRIGHAYSVLDVRHFPLHRLCMLKIRNPWGSHVEWSGDWGDDSPLWNRYPFIKLACRPEKKADGIFWMEWRDVSKFFDSGSVCFRRGHWFRSWYDYRVLGSFEDLVCDTALLIIVNKTSQFPAYISLHQKDCRGLATSDPDSKYACVMISISEGDINGSQQKVVANSSENPEEPSTEYLFQESRSVSLYYKFTKGHKYLVIPRRMKSSTGNNVPKKKYVIALRTQTKVSSEDVVVNIVRLDKNNAVFKNVASFDAGTPTSLNTLYQIKDGNNVFRTYRSDNLRKGKKQHNAEFELVM”, the “soluble on expression in E. coli” value was “not soluble”. With “MDTKHPPDPSGPSDPNINLGEFEDPVDGYADDDLLTPDDLSVSVTGMTPSRSFLETEEFETELGGVEPFEDLFNDISAHEIIQVIADGDRVGRPIVVVYAYRLPSSKEIDHARLLQYLVQIIDKIVDQDYTIVYFHYGLRSHNKPPVRWLFQAYKQLDRRFKKNLKALYVVHPTRFIRIIFSLFKGFISSKFENKFHYVMCIDELENALSVARLNLPSPIRDHDKSFSTQSNRPETPPAQPLPTQQFGVPLEFILSHCGGNIPPIVDQLIEYLEAHALTMEGVFRKSANIGSIKRLQDRINKGEKIDFENDPEYKDNEYVASLHASVLLKTFFRSLGEPLTTNRLYPKLAALSEVSKTEKSAAVKEFVKLLPRENYILLKTVIKFLTRVAENSKVNLMTANNLSVVFGPNLTWPTDQEVPISQLNNLNNFCYKLIVDYDSVFDH” the “soluble on expression in E. coli” value was “not soluble”. For “GMSADIVFDRGSPSDIDEIKTFTSNTWKVGYYTDLYSKLADTGTMDDYVDKVIERWVNDGSVYVLRVSGRPVATIHMEKLPDGSVMLGGLRVHPEYRGSRLGMSIMQETIQFLRGKTERLRSAVYSWNEPSLRLVHRLGFHQVEEYPIYTFQGGSTAVPALKPVNERYAGRWRCFFIDWKYMCSDDPDIIHEEYSNNLIVDGSTFVYFDIYEGGIDLFVNDSDDASSFIEKYRSMNGRITFYVRKALANGLPYVPASSLTVWEYRY”, the “soluble on expression in E. coli” value was “soluble”. In the case of “MKILAFETSTEACSVALHVDGAVRERFELAPRRHAELALPWAEQLLAEAGISRRQLDAIAVGRGPGAFSGVRLAIGIVQGIALALDLPVLAISTLQVLALRAPAEASHVLACIDARMGEVYAGLFERQGEALLTLGSEVVCAPEAVLLPQSTPQWAGVGTGLAAGEMPLQQRFAGRLSSVDAAALPHAADLLTLALPAALRGEGVAPERVEPAYLRDNVALTLVEQQAARAAKAAAVPR”, the “soluble on expression in E. coli” value is reported as “soluble”. For “MGHHHHHHSHLQHETQELASKRVDIQNKRFYLDVKQNAKGRFLKIAEVGAGGNKSRLTLSMSVAVEFRDYLGDFIEHYAQLGPSQPPDLAQAQDEPRRALKSEFLVRENRKYYMDLKENQRGRFLRIRQTVNRGPGLGSTQGQTIALPAQGLIEFRDALAKLIDDYGVEEEPAELPEGTSLTVDNKRFFFDVGSNKYGVFMRVSEVKPTYRNSITVPYKVWAKFGHTFCKYSEEMKKIQEK”, the “soluble on expression in E. coli” value was “soluble”. In the case of “MNNREKEILAILRRNPLIQQNEIADMLQISRSRVAAHIMDLMRKGRIKGKGYILTEQEYCVVVGTINMDIRGMADIRYPQSASHPGTIHCSAGGVGRNIAHNLALLGRDVHLLSVIGDDFYGEMLLEETRRAGVNVSGCVRLHGQSTSTYLAIANRDDQTVLAINDTHLLEQLTPQLLNGSRDLLRHAGVVLADCNLTAEALEWVFTLADEIPVFVDTVSEFKAGKIKHWLAHIHTLKPTLPELEILWGQAITSDADRNTAVNALHQQGVQQLFVYLPDESVYCSEKDGEQFLLTAPAHTTVDSFGADDGFMAGLVYSFLEGYSFRDSARFAVACAAISRASGSLNNPTLSADNALSLVPMV”, the “soluble on expression in E. coli” value is reported as “not soluble”. With “MSTPDDPVIHSPPSIGAAPGMNGYHGSGVKLEESSGACGSPDDGLLDSSEESRRRQKTCRVCGDHATGYNFNVITCESCKAFFRRNALRPKEFKCPYSEDCEINSVSRRFCQKCRLRKCFTVGMKKEWILNEEQLRRRKNSRLNNTGTCNKRSQPGNQQSPQGPNQQPHLSPHHPGVAIYPPQPQRPLTINPMDNQMMHHMQANRPNAMPQLISPPGAQPYPLTSPVGSSASDSPPNRSLTMMHNGEKSPDGYDPNIMAHRAPPPSFNNRPKMDSGQVVLSTEEYKQLLSRIPGAQVPGLMNEEEPINKRAAYNCNGHPMPAETTPPYSAPMSDMSLSRHNSTSSGTEKNHMTHSTVSAIPGNSAQNHFDIASFGMGIVTATGGGDAAEEMYKRMNMFYENCIQSALDSPENQEPKPQEAMIPKEEYMTPTHGFQYQSDPYQVPPAERNINYQLNAAELKALDAVREAFYGMDDPMEQGRQMQSFLKANKTPADIMNIMDVTMRRFVKVAKGVPAFREVSQEGKFSLLKGGMIEMLTVRGVTRYDASTNSFKTPTIKGQNVSVNVDDMFAKLNANAQAQKAKCLEFFGFFDEEIKKNELAVYLVMLAVLFSVRSDPPMNENDVRIVTERHNHFMSLLNRYLESLFGEQARRIFERIPKALGLLNEIARNAGMLFMGTVRSGEAEELPGEFFKIK” the “soluble on expression in E. coli” value was “not soluble”. For “MRRKNLFWDDVYKGTPPWDLDHPQPAFEALIKNGEIKPGRALDIGCGRGENAIILAMNGCDVIGIDLAENAISDAKAKATERHVKVKFVVEDALQMNRLFEEGEFDVVIDSGLFHVMMDEQRRVFAQQVHRVLREGGKYFMLCFSDKEPGEYELPRRLSKAEIESTFSPVFDITYIKEAVFDSLLSPSRRKAYLLSATRSLEHHHHHH”, the “soluble on expression in E. coli” value was “not soluble”.

From the DeepSol protein solubility set
